Test results reported in publication PMC4413028 (Science (New York, N.Y.), 2015).

B1: Get3(D57N) (native, full-length S. cerevisiae Get3, ATP hydrolysis mutant) (natural protein)
chain: MDLTVEPNLHSLITSTTHKWIFVGGKGGVGKTTSSCSIAIQMALSQPNKQFLLISTNPAHNLSDAFGEKFGKDARKVTGMNNLSCMEIDPSAALKDMNDMAVSRANNNGSDGQGDDLGSLLQGGALADLTGSIPGIDEALSFMEVMKHIKRQEQGEGETFDTVIFDTAPTGHTLRFLQLPNTLSKLLEKFGEITNKLGPMLNSFMGAGNVDISGKLNELKANVETIRQQFTDPDLTTFVCVCISEFLSLYETERLIQELISYDMDVNSIIVNQLLFAENDQEHNCKRCQARWKMQKKYLDQIDELYEDFHVVKMPLCAGEIRGLNNLTKFSQFLNKEYNPITDGKVIYELEDKE
B3: Get3 (S. cerevisiae, wild-type) co-expressed with 6xHis-Pep12(262-288) (natural protein)
chain: MDLTVEPNLHSLITSTTHKWIFVGGKGGVGKTTSSCSIAIQMALSQPNKQFLLISTDPAHNLSDAFGEKFGKDARKVTGMNNLSCMEIDPSAALKDMNDMAVSRANNNGSDGQGDDLGSLLQGGALADLTGSIPGIDEALSFMEVMKHIKRQEQGEGETFDTVIFDTAPTGHTLRFLQLPNTLSKLLEKFGEITNKLGPMLNSFMGAGNVDISGKLNELKANVETIRQQFTDPDLTTFVCVCISEFLSLYETERLIQELISYDMDVNSIIVNQLLFAENDQEHNCKRCQARWKMQKKYLDQIDELYEDFHVVKMPLCAGEIRGLNNLTKFSQFLNKEYNPITDGKVIYELEDKE

Legend:
SEC-MALS [1] = target: the molecule itself; assay: SEC-MALS
[2] = target: the molecule itself; assay: sucrose gradient sedimentation
SEC-MALS [3] = target: the molecule itself; assay: SEC-MALS; remark: listed apart in the source
[4] = target: B1; assay: crystal structure
[5] = target: B3; assay: SEC-MALS

With B1 the “stoichiometry N” value (SEC-MALS [1]) was 2.

B2: Get3 (S. cerevisiae, full-length, wild-type) (natural protein)
chain: MDLTVEPNLHSLITSTTHKWIFVGGKGGVGKTTSSCSIAIQMALSQPNKQFLLISTDPAHNLSDAFGEKFGKDARKVTGMNNLSCMEIDPSAALKDMNDMAVSRANNNGSDGQGDDLGSLLQGGALADLTGSIPGIDEALSFMEVMKHIKRQEQGEGETFDTVIFDTAPTGHTLRFLQLPNTLSKLLEKFGEITNKLGPMLNSFMGAGNVDISGKLNELKANVETIRQQFTDPDLTTFVCVCISEFLSLYETERLIQELISYDMDVNSIIVNQLLFAENDQEHNCKRCQARWKMQKKYLDQIDELYEDFHVVKMPLCAGEIRGLNNLTKFSQFLNKEYNPITDGKVIYELEDKE
In the case of B2, the “stoichiometry N” value [2] is reported as 2.

In the case of B3, the “stoichiometry N” value (SEC-MALS [1]) is reported as 4.

B4: 6xHis-tagged Get3(D57N) (natural protein)
chain: MDLTVEPNLHSLITSTTHKWIFVGGKGGVGKTTSSCSIAIQMALSQPNKQFLLISTNPAHNLSDAFGEKFGKDARKVTGMNNLSCMEIDPSAALKDMNDMAVSRANNNGSDGQGDDLGSLLQGGALADLTGSIPGIDEALSFMEVMKHIKRQEQGEGETFDTVIFDTAPTGHTLRFLQLPNTLSKLLEKFGEITNKLGPMLNSFMGAGNVDISGKLNELKANVETIRQQFTDPDLTTFVCVCISEFLSLYETERLIQELISYDMDVNSIIVNQLLFAENDQEHNCKRCQARWKMQKKYLDQIDELYEDFHVVKMPLCAGEIRGLNNLTKFSQFLNKEYNPITDGKVIYELEDKE
B4 was tested, and the “stoichiometry N” value (SEC-MALS [3]) was 2.

KINFDLLISQYAPIVIVAFFFVFLFWWIFLK (domain or fragment) [Sec22(184-214), truncated TA substrate with N-terminal 6xHis tag]: binds [4].

KRTSRWRVYLLIVLLVMLLFIFLIMKL (domain or fragment) [Pep12(262-288), truncated TA substrate with N-terminal 6xHis tag]: binds [4]; binds [5].
